This series can be described thus: Enzyme activity of plant thioredoxin-porphobilinogen synthase: PBG formation from ALA (EC 4.2.1.24). Conditions: 37° C., 1 hour, Tricine buffer pH 7.9, 2.5 mM ALA, 5 mM MgCl2, 1.25 μg purified recombinant protein; Ehrlich's reagent, OD 555 nm. The series is classed as biochemical. On the procedure:
Enzyme activity is tested in accordance with EC 4.2.1.24 using the following assay principle: [drawing 1] The enzyme activity of plant thioredoxin-porphobilinogen synthase (T-PPS) is measured as porphobilinogen (PBG) formation from δ-aminolevulinic acid (Aminolevulinate or ALA). A typical reaction is as follows: the reaction is carried out at 37° C. for 1 hour in Tricine buffer pH 7.9 or other suitable biochemical buffer, 2.5 mM ALA, 5 mM MgCl2 and 1.25 μg of purified recombinant protein from E. coli expression system in a final assay volume of 100 μl. PBG is quantified spectrophotometrically after reaction with the 100 μl Ehrlich's reagent solution. Optical density is determined after 60 minutes at 555 nm.

For “plant thioredoxin-porphobilinogen synthase: fusion protein of thioredoxin and tomato plant porphobilinogen synthase, expressed in E. coli (SEQ ID NO: 2)”, the “enzyme activity (conversion of ALA to PBG)” value is on record as “active”.

The values are drawn from patent US6399352B1, “Plant porphobilinogen synthase and fusion protein thereof” (Paradigm Genetics, Inc., priority 1999, dated 2002).
